Test results: patent US20070009524A1

What was measured:
[1] = biological target: human lymphotoxin (TNFβ) (human) (UniProt P01374); experiment: cell-based or functional assay
[2] = biological target: human tumor necrosis factor-α (TNFα) (human) (UniProt P01375); experiment: cell-based or functional assay
Sequence of human tumor necrosis factor-α (TNFα) (human) (P01375 77-233): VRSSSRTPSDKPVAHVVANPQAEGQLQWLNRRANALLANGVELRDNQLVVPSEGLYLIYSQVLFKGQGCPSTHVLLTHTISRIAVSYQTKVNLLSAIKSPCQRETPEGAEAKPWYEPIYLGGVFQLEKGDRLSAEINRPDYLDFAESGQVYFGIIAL

Sequence of human lymphotoxin (TNFβ) (human) (P01374 35-205 limits assumed): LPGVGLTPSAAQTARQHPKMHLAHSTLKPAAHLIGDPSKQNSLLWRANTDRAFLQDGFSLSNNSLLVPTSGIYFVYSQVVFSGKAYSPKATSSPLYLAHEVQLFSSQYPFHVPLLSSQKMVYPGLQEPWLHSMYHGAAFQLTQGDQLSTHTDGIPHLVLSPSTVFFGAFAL

Work on “p75P-sf2 fusion protein (from UniProt P20333 23-204) (Fc fusion)” yielded a concentration to half-inhibit human TNFβ at 2 pM (WEHI 164 cytotoxicity) [1] of 31 pM.

B1: chimeric mouse/human IgG1 anti-platelet mAb (7E3) (antibody, INN chains, looked up, V domains shown)
VH: EVQLQQSGTVLARPGASVKMSCEASGYTFTNYWMHWVKQRPGQGLEWIGAIYPGNSDTSYIQKFKGKAKLTAVTSTTSVYMELSSLTNEDSAVYYCTLYDGYYVFAYWGQGTLVTVSA
VL: EIVLTQSPVTLSVTPGDSVSLSCRASRDISNNLHWFQQTSHESPRLLIKYASQSMSGIPSRFSGSGSGTDFTLSINSVETEDFGMYFCQQTNSWPYTFGGGTKLEIK
modifications: chimeric IgG1
In the case of B1, the IL-6 secreted by FS-4 fibroblasts, TNF 0.3 ng/ml, 4 µg/ml antibody [2] is reported as 1.6 ng/mL, the IL-6 secreted by FS-4 fibroblasts, TNF 1.5 ng/ml, 4 µg/ml antibody [2] is reported as 1.96 ng/mL and the IL-6 secreted by FS-4 fibroblasts, TNF 7.5 ng/ml, 4 µg/ml antibody [2] is reported as 2.16 ng/mL.
